For test [1], the target named is AnxA2 6x (AnxA2 A66E with K81A, E189K, R196S, K206A, K212S, E219K, alkylated at Cys-8) (human) (UniProt P07355). The test is described as follows: cross-linking; Ca2+/membrane sample: AnxA2 (60 ug) bound to LUVs (100 nm, POPC:DOPC:Chol:POPS 40:20:20:20, 100 ug) with 1 mM CaCl2 in HBS pH 7.4, 0.3 mM Biotin3xNHSX-Linker added after 30 min for 30 min; 10% SDS-PAGE, Coomassie; oligomer bands above the dimer position quantified against the monomer band.

The target of test [2] is AnxA2 10x (AnxA2 A66E 6x with R36S, V53A, T54A, K328A in addition, alkylated at Cys-8) (human) (UniProt P07355). The description is as above.

We go through two substances from PMC7291239.

Regarding “AnxA2 6x (AnxA2 A66E with K81A, E189K, R196S, K206A, K212S, E219K, alkylated at Cys-8) (from UniProt P07355 21-339) (natural protein)”, in test [1], the crosslinked oligomers, percent of wild type (% of wild type) stood at 48. As to “AnxA2 10x (AnxA2 A66E 6x with R36S, V53A, T54A, K328A in addition, alkylated at Cys-8) (from UniProt P07355 21-339) (natural protein)”, the crosslinked oligomers, percent of wild type (% of wild type) in test [2] is 33.
